Laboratory results reported in US20200231691A1 (Hoffmann-La Roche, published 2020).

How the values were obtained:
[1] = target: T1, biotinylated monomeric human OX40 antigen Fc(kih) fusion molecule (human, UniProt P0DOX5 223-449 = IgG part, biotinylated at the C-terminal Avi tag (BirA)); assay: ELISA, biotinylated human OX40 on neutravidin plates, Fab supernatants, anti-Flag/HRP
T1 construct: also called biotinylated human OX40; hu OX40
Procedure: Selections were carried out over 3 or 4 rounds using constant antigen concentrations of 100 nM. […] In rounds 2 and 4, in order to avoid enrichment of binders to neutravidin, capture of antigen: phage complexes was performed by addition of 5.4×10⁷ streptavidin-coated magnetic beads. […] Fab-containing bacterial supernatants were added and binding Fabs were detected via their Flag-tags using an anti-Flag/HRP secondary antibody. […] They were bacterially expressed in a 0.5 liter culture volume, affinity purified and further characterized by SPR-analysis using BioRad's ProteOn XPR36 biosensor.

human EpCAM = target: T2, human EpCAM (human, UniProt P16422 24-314); assay: flow cytometry, huEpCAM+ KATO-III cells
T2 construct: Endogenous on KATO-III cells and stably expressed on NIH/3T3huEpCAM clone 44 cells; also called huEpCAM; KATO-III cells
T2 sequence: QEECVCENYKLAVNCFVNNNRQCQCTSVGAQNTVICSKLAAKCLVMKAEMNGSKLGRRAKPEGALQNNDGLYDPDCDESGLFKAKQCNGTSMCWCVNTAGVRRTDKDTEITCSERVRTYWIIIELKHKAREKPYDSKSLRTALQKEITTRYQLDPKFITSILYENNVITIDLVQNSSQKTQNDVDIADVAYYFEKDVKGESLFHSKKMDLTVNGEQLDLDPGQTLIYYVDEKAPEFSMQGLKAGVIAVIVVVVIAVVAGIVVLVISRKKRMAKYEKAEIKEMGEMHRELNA
Procedure: (§1) For discrimination of live and dead cells, samples were stained with Zombie Aqua Viability Dye (Biolegend, Cat. No 423102) in PBS for 10 minutes at room temperature. Cells were then washed once with FACS buffer and subsequently stained for 90 minutes at 4° C. in the dark in 50 μL/well 4° C.

murine EpCAM = target: T3, murine EpCAM (murine, UniProt Q99JW5 24-315); assay: flow cytometry, muEpCAM+ CT26muEpCAM cells
T3 construct: Stably expressed on CT26muEpCAM cl25 cells; also called muEpCAM; CT26muEpCAM cells
T3 sequence: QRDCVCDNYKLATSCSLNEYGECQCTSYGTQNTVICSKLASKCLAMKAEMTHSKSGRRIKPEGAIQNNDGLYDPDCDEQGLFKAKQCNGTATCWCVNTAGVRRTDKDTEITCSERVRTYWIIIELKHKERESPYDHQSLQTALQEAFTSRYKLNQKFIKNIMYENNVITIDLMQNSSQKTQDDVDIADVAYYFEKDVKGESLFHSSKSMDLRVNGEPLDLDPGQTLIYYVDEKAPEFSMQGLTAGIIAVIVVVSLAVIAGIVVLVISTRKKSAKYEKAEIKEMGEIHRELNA
Procedure: (§2) The binding to cell surface murine EpCAM was analysed using mouse EpCAM-positive CT26muEpCAM c125 cells, which stably expresses murine EpCAM. The specificity of binding was analysed by determination of binding to muEpCAM-negative cell line CT26muFAP, which stably expresses murine FAP.
as §1, with “For analysis of binding of the antigen binding molecules, 0.5×10⁵ CT26muEpCAM or 0.5×10⁵ CT26muFAP cells were added to wells of round-bottomed suspension cell 96-well plates (greiner bio-one, cellstar, Cat. No. 650185). For” for “For”
(§3) Plates were finally resuspended in 85 μL/well FACS-buffer and acquired the same day using 4-laser LSR-II cytometer (BD Bioscience with DIVA software).

murine FAP = target: T4, murine FAP (murine, UniProt P97321 1-761); assay: flow cytometry on CT26muFAP cells, which stably express murine FAP
T4 construct: whole, on cells; CT26muFAP served as the muEpCAM-negative specificity control cell line; also called muFAP; CT26muFAP cells
T4 sequence (looked up): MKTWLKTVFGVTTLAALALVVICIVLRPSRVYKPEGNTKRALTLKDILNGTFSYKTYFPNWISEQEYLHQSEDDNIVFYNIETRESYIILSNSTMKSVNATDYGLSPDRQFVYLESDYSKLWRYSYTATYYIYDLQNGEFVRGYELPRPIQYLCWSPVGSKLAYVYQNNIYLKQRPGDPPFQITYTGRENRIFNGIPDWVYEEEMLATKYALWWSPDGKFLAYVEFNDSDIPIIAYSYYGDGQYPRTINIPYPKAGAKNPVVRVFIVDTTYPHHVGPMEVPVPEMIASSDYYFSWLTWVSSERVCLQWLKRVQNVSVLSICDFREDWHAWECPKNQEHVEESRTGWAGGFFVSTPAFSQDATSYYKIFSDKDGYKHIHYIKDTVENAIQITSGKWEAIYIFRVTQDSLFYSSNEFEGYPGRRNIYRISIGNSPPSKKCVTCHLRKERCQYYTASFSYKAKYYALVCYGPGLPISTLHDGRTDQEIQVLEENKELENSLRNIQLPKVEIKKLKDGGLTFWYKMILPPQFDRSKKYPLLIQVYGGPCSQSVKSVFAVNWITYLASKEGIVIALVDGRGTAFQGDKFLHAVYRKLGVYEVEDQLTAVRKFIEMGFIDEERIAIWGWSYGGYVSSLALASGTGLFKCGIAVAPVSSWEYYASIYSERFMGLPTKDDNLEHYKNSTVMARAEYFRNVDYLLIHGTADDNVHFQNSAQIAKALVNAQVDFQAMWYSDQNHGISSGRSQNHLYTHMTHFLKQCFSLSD
Procedure: as §2
as §1, with “For analysis of binding of the antigen binding molecules, 0.5×10⁵ CT26muEpCAM or 0.5×10⁵ CT26muFAP cells were added to wells of round-bottomed suspension cell 96-well plates (greiner bio-one, cellstar, Cat. No. 650185). For” for “For”
as §3

human OX40 [2] = target: T5, human OX40 (human, UniProt P43489 29-277); assay: flow cytometry, activated human OX40+ CD4+ T cells
T5 construct: Recombinant on HeLa reporter cells in the NFkB assay; also called huOX40; CD134
T5 sequence: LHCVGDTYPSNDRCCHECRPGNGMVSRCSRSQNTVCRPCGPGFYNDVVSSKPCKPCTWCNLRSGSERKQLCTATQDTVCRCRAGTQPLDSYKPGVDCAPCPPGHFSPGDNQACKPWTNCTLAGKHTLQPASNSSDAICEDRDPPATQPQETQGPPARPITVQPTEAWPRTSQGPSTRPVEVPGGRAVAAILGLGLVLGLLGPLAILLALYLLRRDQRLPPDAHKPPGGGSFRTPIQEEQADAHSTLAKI
Procedure: (§4) For discrimination of live and dead cells, samples were stained with Zombie Aqua Viability Dye (Biolegend, Cat. No. 423102) in DPBS for 10 minutes at room temperature. […] After three washes with excess FACS buffer, cells were stained for 30 minutes at 4° C. in the dark in 25 μL/well 4° C. FACS buffer containing a mixture of fluorescently labeled anti-human CD4 (clone RPA-T4, mouse IgG1 k, BioLegend, Cat. No. 300532), anti-human CD8 (clone RPa-T8, mouse IgG1k, BioLegend, Cat.-No. 3010441) and Fluorescein isothiocyanate (FITC)-conjugated AffiniPure anti-human IgG Fcγ-fragment-specific goat IgG F(ab′)2 fragment (Jackson ImmunoResearch, Cat. No. 109 096 098).

human OX40 [3] = target: T5, human OX40; assay: flow cytometry, activated human OX40+ CD8+ T cells
Procedure: as §4

B1: anti-OX40 clone 20B7 (phage-derived Fab) (Fab, V domains shown)
VH: QVQLVQSGAEVKKPGSSVKVSCKASGGTFSSYAISWVRQAPGQGLEWMGGIIPIFGTANYAQKFQGRVTITADKSTSTAYMELSSLRSEDTAVYYCARVNYPYSYWGDFDYWGQGTTVTVSS
VL: DIQMTQSPSTLSASVGDRVTITCRASQSISSWLAWYQQKPGKAPKLLIYDASSLESGVPSRFSGSGSGTEFTLTISSLQPDDFATYYCQQYQAFSLTFGQGTKVEIK
notes: Tested as a Flag-tagged Fab in bacterial supernatant (DP88-4 library); also called OX40 (20B7)
binding result [1]: binds

B2: anti-OX40 clone 49B4 (phage-derived Fab) (Fab, V domains shown)
VH: QVQLVQSGAEVKKPGSSVKVSCKASGGTFSSYAISWVRQAPGQGLEWMGGIIPIFGTANYAQKFQGRVTITADKSTSTAYMELSSLRSEDTAVYYCAREYYRGPYDYWGQGTTVTVSS
VL: DIQMTQSPSTLSASVGDRVTITCRASQSISSWLAWYQQKPGKAPKLLIYDASSLESGVPSRFSGSGSGTEFTLTISSLQPDDFATYYCQQYSSQPYTFGQGTKVEIK
notes: Tested as a Flag-tagged Fab in bacterial supernatant (DP88-4 library); also called OX40 (49B4)
binding result [1]: binds

B3: monospecific, bivalent anti-human EpCAM IgG (parental bivalent anti-human EpCAM antibody, clone 3-17I, Affitech) (antibody, V domains shown)
VH: QVQLVQSGAEVKKPGSSVKVSCKASGGTFSSYAISWVRQAPGQGLEWMGGIIPIFGTANYAQKFQGRVTITADESTSTAYMELSSLRSEDTAVYYCARGLLWNYWGQGTLVTVSS
VL: EIVMTQSPATLSVSPGERATLSCRASQSVSSNLAWYQQKPGQAPRLIIYGASTTASGIPARFSASGSGTDFTLTISSLQSEDFAVYYCQQYNNWPPAYTFGQGTKLEIK
notes: IgG; it was detected with an anti-human IgG secondary; also called huEpCAM IgG; 3-171
EC50 (human EpCAM): 3.11 nM

B4: anti-OX40 clone 1G4 (phage-derived Fab) (Fab, V domains shown)
VH: QVQLVQSGAEVKKPGSSVKVSCKASGGTFSSYAISWVRQAPGQGLEWMGGIIPIFGTANYAQKFQGRVTITADKSTSTAYMELSSLRSEDTAVYYCAREYGSMDYWGQGTTVTVSS
VL: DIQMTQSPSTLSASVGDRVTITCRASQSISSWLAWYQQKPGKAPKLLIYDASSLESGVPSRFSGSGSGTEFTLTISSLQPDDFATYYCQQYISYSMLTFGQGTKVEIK
notes: Tested as a Flag-tagged Fab in bacterial supernatant (DP88-4 library); also called OX40 (1G4)
binding result [1]: binds

B5: monospecific, bivalent anti-murine EpCAM IgG (parental bivalent anti-muEpCAM antibody) (antibody, V domains shown)
VH: EVQLAESGGGLVQPGRSMKLSCAASGFTFSNFPMAWVRQAPTKGLEWVATISTSGGSTYYRDSVKGRFTISRDNAKSTLYLQMNSLRSEDTATYYCTRTLYILRVFYFDYWGQGVMVTVSS
VL: DIQMTQSPASLSASLGETVSIECLASEGISNDLAWYQQKSGKSPQLLIYATSRLQDGVPSRFSGSGSGTRYSLKISGMQPEDEADYFCQQSYKYPWTFGGGTKLELK
notes: it was detected with anti-mouse IgG Fc; also called muEpCAM IgG; G8.8
EC50 (murine EpCAM): 2.87 nM
binding result (murine FAP): no binding

B6: bispecific, tetravalent anti-human OX40, bivalent anti-human EpCAM 4+2 molecule (OX40 49B4/EpCAM 3-17I P329GLALA 4+2) (bispecific antibody, human IgG1, kappa, L234A L235A)
heavy: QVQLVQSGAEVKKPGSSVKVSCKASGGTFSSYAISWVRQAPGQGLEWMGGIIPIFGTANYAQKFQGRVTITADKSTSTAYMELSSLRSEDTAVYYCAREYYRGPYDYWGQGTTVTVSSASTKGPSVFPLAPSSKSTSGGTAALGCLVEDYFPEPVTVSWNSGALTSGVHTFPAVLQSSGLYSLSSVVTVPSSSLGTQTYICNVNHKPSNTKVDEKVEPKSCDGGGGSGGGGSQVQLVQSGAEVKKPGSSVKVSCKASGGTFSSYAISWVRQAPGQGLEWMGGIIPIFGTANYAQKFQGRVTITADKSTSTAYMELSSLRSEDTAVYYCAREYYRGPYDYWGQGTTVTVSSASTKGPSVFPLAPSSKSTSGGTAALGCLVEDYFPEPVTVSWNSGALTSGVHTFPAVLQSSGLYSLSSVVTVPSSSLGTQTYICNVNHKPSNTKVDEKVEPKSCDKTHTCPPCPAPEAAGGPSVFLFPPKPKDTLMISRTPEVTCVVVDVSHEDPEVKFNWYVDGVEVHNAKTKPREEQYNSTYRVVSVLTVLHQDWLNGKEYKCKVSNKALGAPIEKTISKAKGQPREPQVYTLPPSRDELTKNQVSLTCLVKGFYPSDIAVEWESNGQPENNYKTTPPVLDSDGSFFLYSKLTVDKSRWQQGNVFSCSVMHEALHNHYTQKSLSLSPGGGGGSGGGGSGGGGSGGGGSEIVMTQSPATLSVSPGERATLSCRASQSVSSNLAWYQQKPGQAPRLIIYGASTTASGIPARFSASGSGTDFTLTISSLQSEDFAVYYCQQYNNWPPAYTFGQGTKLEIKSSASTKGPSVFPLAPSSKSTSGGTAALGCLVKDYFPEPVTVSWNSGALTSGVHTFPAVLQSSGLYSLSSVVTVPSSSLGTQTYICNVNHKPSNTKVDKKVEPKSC
light 1: DIQMTQSPSTLSASVGDRVTITCRASQSISSWLAWYQQKPGKAPKLLIYDASSLESGVPSRFSGSGSGTEFTLTISSLQPDDFATYYCQQYSSQPYTFGQGTKVEIKRTVAAPSVFIFPPSDRKLKSGTASVVCLLNNFYPREAKVQWKVDNALQSGNSQESVTEQDSKDSTYSLSSTLTLSKADYEKHKVYACEVTHQGLSSPVTKSFNRGEC
light 2: QVQLVQSGAEVKKPGSSVKVSCKASGGTFSSYAISWVRQAPGQGLEWMGGIIPIFGTANYAQKFQGRVTITADESTSTAYMELSSLRSEDTAVYYCARGLLWNYWGQGTLVTVSSASVAAPSVFIFPPSDEQLKSGTASVVCLLNNFYPREAKVQWKVDNALQSGNSQESVTEQDSKDSTYSLSSTLTLSKADYEKHKVYACEVTHQGLSSPVTKSFNRGEC
notes: huIgG1 P329G LALA, no knob-into-hole; also called 4+2 huEpCAM; 4 + 2 anti-huOX40, anti-huEpCAM
EC50 (human OX40 [2]): 0.01 nM
EC50 (human OX40 [3]): 0.04 nM

B7: anti-OX40 clone 17A9 (phage-derived Fab) (Fab, V domains shown)
VH: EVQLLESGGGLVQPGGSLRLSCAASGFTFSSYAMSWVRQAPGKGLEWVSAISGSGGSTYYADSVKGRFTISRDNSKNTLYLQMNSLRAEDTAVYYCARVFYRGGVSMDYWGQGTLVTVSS
VL: SSELTQDPAVSVALGQTVRITCQGDSLRSYYASWYQQKPGQAPVLVIYGKNNRPSGIPDRFSGSSSGNTASLTITGAQAEDEADYYCNSRVMPHNRVFGGGTKLTV
notes: Tested as a Flag-tagged Fab in bacterial supernatant (lambda-DP47 library); also called OX40 (17A9)
binding result [1]: binds
